The values below come from patent US20250179160A1 (OMEROS, published 2025).

For assay [1], the target named is T1, recombinant human mature Factor D (human, UniProt P00746 26-253).
T1 construct: also called mature CFD; hCFD
As to the kind of experiment: BLI (Octet ForteBio), 20 nM human IgG4 antibody on anti-human sensors, antigen 111 nM.
Protocol: Affinities of candidate antibodies to human mature-Factor-D versus human pro-Factor D were determined as follows.
Association and dissociation constants were determined by Octet Fortebio.

Assay [2] has as its target T2, recombinant human Pro-Factor D (human, UniProt P00746 20-253).
T2 construct: also used for the endogenous pro-Factor D detected in 3MC patient serum; also called pro CFD; hPro-CFD
As to the kind of experiment: sandwich ELISA: Factor D titrated (ug/ml Df) on plate-bound goat polyclonal AF1824; purified recombinant human IgG4 antibody as detection antibody; OD450.
Description: An HRP-tagged anti-mouse secondary antibody followed by TMB substrate was used to develop the assay.

For assay [3], the target named is T1, recombinant human mature Factor D. Description: ELISA: antibody titrated 3-fold from 3 ug/ml on plate coated with 1 ug/ml recombinant human mature Factor D; HRP anti-mouse, rat or human secondary; OD450.
For assay [4] the target is unchanged. As to the kind of experiment: capture ELISA: recombinant Factor D captured by plate-bound goat polyclonal AF1824; hybridoma supernatant diluted two-fold; HRP goat anti-mouse IgG Fc; OD450.
Protocol: The specificity of anti-human pro-CFD hybridomas were further analyzed as follows. […] ELISA plates were coated with polyclonal anti-human factor D antibody AF1824 (R&D Systems). Hybridoma supernatants were diluted two-fold in PBS, 0.05% Tween 20 (PBST). […] Hybridoma supernatants and control samples were allowed to bind to captured pro or mature Factor D for one hour at room temperature. After washing three times with PBST, 100 μL/well of HRP-goat anti-mouse IgG Fc gamma secondary antibody (Jackson ImmunoResearch) diluted in PBST was added and incubated for 1 hour at room temperature. After washing three times with PBST, TMB substrate (ThermoFisher), 100 μL/well, was added. After 4 minutes the reaction was stopped with 50 μL/well of 1N H2SO₄, then read at 450 nm on a Biotek™ ELISA plate reader.

B1: 6G6, purified recombinant, human IgG4 (antibody, V domains shown)
VH: QITLKESGPGILQSSQTLSLTCSFSGISLTTSGMGVSWIRQPSGKGLEWLAHIYWDDEKHYHPSLKSRLTISKDASRNQVFFRILSVDTADTATYYCALRYYGYRSFMDYWGQGTSVTVSS
VL: DVLMTQSPLSLPVSLGDQASIFCRSNQSIVHSNGNTYFEWYLQKPGQSPKLLIYKVSNRFSGVPDRFSGSGSGTDFTLRISRVEAEDLGVYYCFQGSHVPPTFGGGTKLEIKR
notes: Mouse variable regions on human IgG4 (S228P) and human kappa constant regions
As for B1, the Kd in assay [1] is 14.3 nM. The binding result in assay [2] is “no binding”.

B2: 27B3, purified recombinant, human IgG4 (antibody, V domains shown)
VH: QVTLKESGPGILQSSQTLSLTCSFSGISLNISGMGVSWIRQPSGKGLEWLAHIYWDDEKHYNPSLKRRLTISKDASRNQVFFRISSVDSADTATYYCALRYYGYGSIMDYWGHGTSVTVSS
VL: DVLMTQTPLSLPVSLGDQASISCRSSQSIVHSNGNTYFEWYLQKPGQSPKLLIYKVSNRFSGVPDRFSGSGSGTDFTLKISRVEAEDLGVYYCFQGSHVPPTFGGGTKLEIKR
notes: as for B1
For B2, the Kd in assay [1] turned out to be 24.1 nM. For the same molecule, the binding result in assay [2] is listed as “no binding”.

B3: 49G3, purified recombinant, human IgG4 (antibody, V domains shown)
VH: QVTLKESGPGILQSSQTLSLTCSFSGISLSSSGMGVSWIRQPSGKGLEWLAHIYWDDEKHYNPSLKSRLTISKDASRNQIFLKIISVDTADTATYYCALRYYGYNYVMHYWGQGTSVTVSS
VL: DVLMTQTPLSLPVSLGDQASISCRSSQSILHSNGNTYFEWYLQKPGQSPKLLIYKVSNRFSGVPDRFSGSGSGTDFTLKISRVEAEDLGVYYCFQGSHVPPTFGGGTKLEIKR
notes: as for B1
Regarding B3, the Kd in assay [1] turned out to be 2.3 nM. The binding result in assay [2] is given as “no binding”.

B4: 14A11, purified recombinant, human IgG4 (antibody)
heavy: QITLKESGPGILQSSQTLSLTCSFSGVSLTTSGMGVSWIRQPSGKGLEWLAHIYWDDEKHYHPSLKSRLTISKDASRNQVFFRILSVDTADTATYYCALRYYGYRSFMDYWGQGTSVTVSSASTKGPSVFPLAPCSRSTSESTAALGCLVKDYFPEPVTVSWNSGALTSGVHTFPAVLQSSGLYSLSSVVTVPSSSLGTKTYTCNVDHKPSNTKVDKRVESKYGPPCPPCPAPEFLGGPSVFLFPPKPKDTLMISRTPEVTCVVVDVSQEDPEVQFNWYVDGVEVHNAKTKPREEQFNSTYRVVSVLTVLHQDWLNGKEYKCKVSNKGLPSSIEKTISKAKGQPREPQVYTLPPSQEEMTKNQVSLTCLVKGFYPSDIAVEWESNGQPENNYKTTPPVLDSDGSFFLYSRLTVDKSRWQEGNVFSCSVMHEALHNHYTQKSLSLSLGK
light: DVLMTQSPLSLPVSLGDQASIFCRSNQSIVHSNGNTYFEWYLQKPGQSPKLLIYKVSNRFSGVPDRFSGSGSGTDFTLRISRVEAEDLGIYYCFQGSHVPPTFGGGTKLEIKRTVAAPSVFIFPPSDEQLKSGTASVVCLLNNFYPREAKVQWKVDNALQSGNSQESVTEQDSKDSTYSLSSTLTLSKADYEKHKVYACEVTHQGLSSPVTKSFNRGEC
notes: as for B1
As for B4, in assay [1], the Kd was 9.77 nM. Further, the binding result in assay [2] was “no binding”.

B5: 58F5, purified recombinant, human IgG4 (antibody, V domains shown)
VH: QVTLKESGPGILQSSQTLSLTCSFSGISLNTSIMGVSWIRQPSGKGLEWLAHIYWDDEKHYNPSLKSRLTISKDASRNQVFLKIISVDTADTATYYCALRYYGYNYVMHYWGQGTSVTVSS
VL: DVLMTQTPLSLPVSLGDQASISCRSSQSIVHSNGNTYLEWYLQKPGQSPKLLIYKVSNRFSGVPDRFSGSGSGTDFTLKISRVEADDLGVYYCFQGSHVPPTFGGGTKLEIKR
notes: as for B1
Consider B5, for which the Kd in assay [1] is < 0.001 nM. Moreover, in assay [2], the binding result was “no binding”.

B6: 10G1, purified recombinant, human IgG4 (antibody, V domains shown)
VH: QVTLKESGPGILQSSQTLSLTCSFSGVSLSSSGMGVSWIRQPSGKGLEWLAHIYWDDEKHYNPSLKSRLTISKGASRNQVFLKIISVDTADTATYYCALRYYGYNSIMHYWGQGASVTVSS
VL: DVLMTQTPLSLPVSLGDQASISCRSSESIVHSNGNTYLEWYLQKPGQSPKLLIYKVYNRFSGVPDRFSGSGSGTDFTLKISRVEAEDLGVYYCFQGSHVPPTFGGGTKLEIKR
notes: as for B1
Turning to B6, the Kd in assay [1] came to 0.731 nM. For the same molecule, the binding result in assay [2] was “no binding”.

B7: 1F9, purified recombinant, human IgG4 (antibody, V domains shown)
VH: EVKLEESGGGLVQPGGSMKLSCVASGFTFGSYWMSWVRQSPEKGLEWVAEIRLKSDNYAAHYAESVKGKFTISRDDSKSRLYLQMNSLRGEDTGIYYCTNAWFASWGQGTLVTVSA
VL: DIVMSQSPSSLTVSVGEKVTMSCMSSQSLLYSKDQKNYLAWYQQKPGQSPTLLIYWASTRESGVPDRFTGSGSGTDFTLTISSVKAEDLAVYYCLQYYTYPYTFGGGTKLEIKR
notes: as for B1
As to B7, the binding result in assay [3] is recorded as “no binding (tested: 3 ug/ml)”.

B8: 20A1, purified recombinant, human IgG4 (antibody, V domains shown)
VH: EVKLEESGGGLVQPGGSMKLSCIASGFTFSTYWMSWVRQSPEKGLEWVAEIRLKSENYATYYAESVKGKFIISRDDSKSRLYLQMNSLRAEDTGIYYCTNAWFANWGQGTLVTVSA
VL: DIVMSQSPSSLVVSVGEKVTMSCKSSQNLLYSRDQKNYLAWYQQKPGQSPNLLIYWASTRESGVPDRFTGSGSGTDFSLTISSVKAEDLAVYYCLQYYSYPYTFGGGTKLEMKR
notes: as for B1
For B8, in assay [3], the binding result is given as “no binding (tested: 3 ug/ml)”.

B9: 18F5, hybridoma supernatant (antibody, V domains shown)
VH: EVKLEESGGGLVQPGGSMKLSCVASGFTFGNYWMSWVRQSPEKGLEWVAEIRLKSDNYATHYAESVKGKFTISRDDSKSRLYLQMNSLRGEDTGLYYCTNAWFASWGQGTLVTVSA
VL: DIVMSQSPSSLAVSVGEKVTMSCMSSQSLLYSKDQKNYLAWYQQKPGQSPKLLIYWASTRESGVPDRFTGSGSGTDFTLTISSVKAEDLAVYYCLQYYTYPYTFGGGTKLEIKR
notes: Mouse hybridoma antibody
On to B9, for which, in assay [4], the binding result is “no binding”.

B10: 20A1, hybridoma supernatant (antibody, V domains shown)
VH: EVKLEESGGGLVQPGGSMKLSCIASGFTFSTYWMSWVRQSPEKGLEWVAEIRLKSENYATYYAESVKGKFIISRDDSKSRLYLQMNSLRAEDTGIYYCTNAWFANWGQGTLVTVSA
VL: DIVMSQSPSSLVVSVGEKVTMSCKSSQNLLYSRDQKNYLAWYQQKPGQSPNLLIYWASTRESGVPDRFTGSGSGTDFSLTISSVKAEDLAVYYCLQYYSYPYTFGGGTKLEMKR
notes: Mouse hybridoma antibody
With B10, in assay [4], the binding result is given as “no binding”.

B11: 1F9, hybridoma supernatant (antibody, V domains shown)
VH: EVKLEESGGGLVQPGGSMKLSCVASGFTFGSYWMSWVRQSPEKGLEWVAEIRLKSDNYAAHYAESVKGKFTISRDDSKSRLYLQMNSLRGEDTGIYYCTNAWFASWGQGTLVTVSA
VL: DIVMSQSPSSLTVSVGEKVTMSCMSSQSLLYSKDQKNYLAWYQQKPGQSPTLLIYWASTRESGVPDRFTGSGSGTDFTLTISSVKAEDLAVYYCLQYYTYPYTFGGGTKLEIKR
notes: Mouse hybridoma antibody
Consider B11, for which the binding result in assay [4] is on record as “no binding”.

B12: 2A4, hybridoma supernatant (antibody, V domains shown)
VH: EVKLEESGGGLVQPGGSMKLSCVASGFTFSTYWMSWVRQSPEKGLEWVAEIRLKSDNYATHYTESVKGKFTISRDDSKSRLYLQMNSLRVEDTGIYYCTNAWFAYWGQGTLVTVSA
VL: DIVMSQSPSSLAVSVGEKFTMSCKSSQSLLYSRDQKNYLAWYQQQPGQSPKLLIYWASTRESGVPDRFTGSGSGTDFTLTISSVKTEDLAVYYCLQYYSYPYTFGGGTKLEIKR
notes: Mouse hybridoma antibody
Consider B12, for which, in assay [4], the binding result is “no binding”.

B13: 13A10, hybridoma supernatant (antibody, V domains shown)
VH: DVQLQESGPGLVKPSQSLSLTCTVTGYSITSDYAWNWIRQFPGNKLEWMGYISYIGGIGYNPSLKSRISITRDTSKNQFFLHLNSVTTGDTATYYCARNGAMDFWGQGISVTVSS
VL: DIVLTQSPASLAVSLGQRATISCKASQSVDYDGDSYMNWYQQKPGQPPKLLIYDASNLESGIPARFSGSGSGTDFTLNIHPVEEEDAATYYCQQSNEAPWTFGGGTKLEIKR
notes: Mouse hybridoma antibody
Regarding B13, in assay [4], the binding result is “no binding”.

B14: 21H1, hybridoma supernatant (antibody, V domains shown)
VH: DVQLQESGPGLVKPSQSLSLTCTVTGYSITSDYAWNWIRQFPGNKLEWMGYISYSGSTGYSPSLKSRISITRDTSKNQFFLHLNSVTTGDTATYYCARNGAMDYWGQGISVTVSS
VL: DIVLTQSPASLAVSLGQRATISCKASQSVDYDGDSYMNWYQQKPGQPPKLLIYDASTLESGIPARFSGSGSGTDFTLNIHPVEEEDAATYYCQQNYEAPWTFGGGTKLEIKR
notes: Mouse hybridoma antibody
For B14, the binding result in assay [4] was “no binding”.
